Bridges are numbered along the chain shown (N, C = ends). Primed or numbered codes have the meaning given here. [ ]: non-standard residue; d: D form. Ygp(4) = Tyr with amino-capped PEG8 (O-(8x polyethylene glycol-amino)-tyrosine); Yn3(4) = Tyr with azide-capped PEG9 (O-(9x polyethylene glycol-azido)-tyrosine); Ygp = O-(8x polyethylene glycol-amino)-tyrosine (Tyr, amino-capped PEG8); Yn3 = O-(9x polyethylene glycol-azido)-tyrosine (Tyr, azide-capped PEG9); PEG4′ = 4x polyethylene glycol; PEG9′ = 9x polyethylene glycol; hSer = N[C@@H](CCO)C(=O)O; Nle = CCCC[C@H](N)C(=O)O
Columns and labels:
[1] = biological target: T1, IL-2 receptor βγ complex (human, UniProt P14784 27-551; P31785 23-369); experiment: cell-based or functional assay
T1 sequence (looked up) 1: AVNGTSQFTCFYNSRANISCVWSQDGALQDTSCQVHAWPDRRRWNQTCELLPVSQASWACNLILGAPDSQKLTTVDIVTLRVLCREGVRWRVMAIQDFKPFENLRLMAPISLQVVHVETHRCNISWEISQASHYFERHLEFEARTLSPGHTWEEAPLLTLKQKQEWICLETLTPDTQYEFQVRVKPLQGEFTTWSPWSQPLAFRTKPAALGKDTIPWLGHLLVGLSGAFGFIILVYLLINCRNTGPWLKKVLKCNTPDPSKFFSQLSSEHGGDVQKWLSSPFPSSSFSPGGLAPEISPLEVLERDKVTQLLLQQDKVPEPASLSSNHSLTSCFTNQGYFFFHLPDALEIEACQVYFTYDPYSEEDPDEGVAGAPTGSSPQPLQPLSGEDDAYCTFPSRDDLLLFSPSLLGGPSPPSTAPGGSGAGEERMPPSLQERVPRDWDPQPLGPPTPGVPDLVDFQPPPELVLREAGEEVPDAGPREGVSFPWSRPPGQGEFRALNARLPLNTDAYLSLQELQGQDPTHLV
T1 sequence (looked up) 2: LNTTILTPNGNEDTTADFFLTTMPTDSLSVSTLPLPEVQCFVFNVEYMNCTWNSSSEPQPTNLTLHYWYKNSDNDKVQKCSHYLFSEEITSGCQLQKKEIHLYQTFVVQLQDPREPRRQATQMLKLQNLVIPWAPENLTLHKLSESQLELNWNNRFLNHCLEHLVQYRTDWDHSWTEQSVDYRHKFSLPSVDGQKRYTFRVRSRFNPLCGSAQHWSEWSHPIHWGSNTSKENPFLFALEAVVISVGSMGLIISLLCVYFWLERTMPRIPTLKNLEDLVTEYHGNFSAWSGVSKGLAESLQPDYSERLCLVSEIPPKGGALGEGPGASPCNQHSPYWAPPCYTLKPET

[2] = biological target: T1, IL-2 receptor βγ complex; experiment: cell-based or functional assay; remark: listed apart in the source

B1: CMP-303 (ligand)
chain: PLGLAGAPTSSSTKKTQLQLEHLLLDLQEILNGINNYKNPKLTR[Nle]L[hSer][Yn3(4)]KF[Ygp(4)][Nle]PKKATELKHLQCLEEELKPLEEVL[hSer]LAQSKNFHLRPRDLISNINVIVLELKGSETTF[hSer]CEYADETATIVEFLNRWITFSQSIISTLT
modifications: bridge N-29; not fully specified (N-terminus, bridges); ends not checked
Average EC50, pSTAT5 Assay (T cells) [1]: 97.9 nM

B2: CMP-169, MMP2 cleaved molecule (ligand)
chain: APTSSSTKKTQLQLEHLLLDLQEILNGINNYKNPKLTR[Nle]L[hSer][Yn3(4)]KF[Ygp(4)][Nle]PKKATELKHLQCLEEELKPLEEVL[hSer]LAQSKNFHLRPRDLISNINVIVLELKGSETTF[hSer]CEYADETATIVEFLNRWITFSQSIISTLT
modifications: not fully specified; ends and bridges not checked; also: cleaved by MMP2, product not given here, Lys9 side chain linked to another sequence via PEG4, Glu23 side chain linked to another sequence
Average EC50, pSTAT5 Assay (T cells) [1]: 5.39 nM

B3: CMP-300, MMP2 cleaved molecule (ligand)
chain: APTSSSTKKTQLQLEHLLLDLQEILNGINNYKNPKLTR[Nle]L[hSer][Yn3(4)]KF[Ygp(4)][Nle]PKKATELKHLQCLEEELKPLEEVL[hSer]LAQSKNFHLRPRDLISNINVIVLELKGSETTF[hSer]CEYADETATIVEFLNRWITFSQSIISTLT
modifications: not fully specified; ends and bridges not checked; also: cleaved by MMP2, product not given here, N-terminus linked to another sequence via PEG4, Glu23 side chain linked to another sequence
Average EC50, pSTAT5 Assay in NK cells [2]: 0.379 nM
Average EC50, pSTAT5 Assay (T cells) [1]: 1.73 nM

B4: CMP-302 (ligand)
chain: GPLGLAGAPTSSSTKKTQLQLEHLLLDLQEILNGINNYKNPKLTR[Nle]L[hSer][Yn3(4)]KF[Ygp(4)][Nle]PKKATELKHLQCLEEELKPLEEVL[hSer]LAQSKNFHLRPRDLISNINVIVLELKGSETTF[hSer]CEYADETATIVEFLNRWITFSQSIISTLT
modifications: lactam N-30; ends not checked
Average EC50, pSTAT5 Assay (T cells) [1]: 63.4 nM

B5: CMP-305 (ligand)
chain: APTSSSTKKTQLQLEHLLLDLQKILNGINNYKNPKLTR[Nle]L[hSer][Yn3]KF[Ygp][Nle]PKKATELKHLQCLEEELKPLEEVL[hSer]LAQSKNFHLRPRDLISNINVIVLELKGSETTF[hSer]CEYADETATIVEFLNRWITFSQSIISTLT
modifications: bridge 15-23; not fully specified (bridges); also: further groups not given here
Average EC50, pSTAT5 Assay (T cells) [1]: 128 nM

B6: CMP-301 (ligand)
chain: GPLGLAG[PEG9′]APTSSSTKKTQLQLEHLLLDLQEILNGINNYKNPKLTR[Nle]L[hSer][Yn3(4)]KF[Ygp(4)][Nle]PKKATELKHLQCLEEELKPLEEVL[hSer]LAQSKNFHLRPRDLISNINVIVLELKGSETTF[hSer]CEYADETATIVEFLNRWITFSQSIISTLT
modifications: lactam N-31; ends not checked
Average EC50, pSTAT5 Assay (T cells) [1]: 180 nM

B7: CMP-169 (ligand)
chain: APTSSSTKKTQLQLEHLLLDLQEILNGINNYKNPKLTR[Nle]L[hSer][Yn3(4)]KF[Ygp(4)][Nle]PKKATELKHLQCLEEELKPLEEVL[hSer]LAQSKNFHLRPRDLISNINVIVLELKGSETTF[hSer]CEYADETATIVEFLNRWITFSQSIISTLT
modifications: bridge 9-23; not fully specified (bridges); ends not checked; also: linker peptide sequence not given here
Average EC50, pSTAT5 Assay (T cells) [1]: 53.4 nM

B8: CMP-168, MMP2 cleaved molecule (ligand)
chain: APTSSSTKKTQLQLEHLLLDLQEILNGINNYKNPKLTR[Nle]L[hSer][Yn3(4)]KF[Ygp(4)][Nle]PKKATELKHLQCLEEELKPLEEVL[hSer]LAQSKNFHLRPRDLISNINVIVLELKGSETTF[hSer]CEYADETATIVEFLNRWITFSQSIISTLT
modifications: not fully specified; ends and bridges not checked; also: MMP2 cleaved, cleavage site and linker fragments on Lys9 and Glu23 side chains not given here
Average EC50, pSTAT5 Assay in NK cells [2]: 0.981 nM
Average EC50, pSTAT5 Assay (T cells) [1]: 6.3 nM

B9: CMP-300 (ligand)
chain: GPLGLAG[PEG4′]APTSSSTKKTQLQLEHLLLDLQEILNGINNYKNPKLTR[Nle]L[hSer][Yn3(4)]KF[Ygp(4)][Nle]PKKATELKHLQCLEEELKPLEEVL[hSer]LAQSKNFHLRPRDLISNINVIVLELKGSETTF[hSer]CEYADETATIVEFLNRWITFSQSIISTLT
modifications: lactam N-31; ends not checked
Average EC50, pSTAT5 Assay in NK cells [2]: 38.1 nM
Average EC50, pSTAT5 Assay (T cells) [1]: 94.7 nM

B10: CMP-301, MMP2 cleaved molecule (ligand)
chain: APTSSSTKKTQLQLEHLLLDLQEILNGINNYKNPKLTR[Nle]L[hSer][Yn3(4)]KF[Ygp(4)][Nle]PKKATELKHLQCLEEELKPLEEVL[hSer]LAQSKNFHLRPRDLISNINVIVLELKGSETTF[hSer]CEYADETATIVEFLNRWITFSQSIISTLT
modifications: not fully specified; ends and bridges not checked; also: cleaved by MMP2, product not given here, N-terminus linked to another sequence via PEG9, Glu23 side chain linked to another sequence
Average EC50, pSTAT5 Assay (T cells) [1]: 0.883 nM

B11: CMP-168 (ligand)
chain: APTSSSTKKTQLQLEHLLLDLQEILNGINNYKNPKLTR[Nle]L[hSer][Yn3(4)]KF[Ygp(4)][Nle]PKKATELKHLQCLEEELKPLEEVL[hSer]LAQSKNFHLRPRDLISNINVIVLELKGSETTF[hSer]CEYADETATIVEFLNRWITFSQSIISTLT
modifications: bridge 9-23; not fully specified (bridges); ends not checked; also: sequence of the cleavable bridging peptide not given here
Average EC50, pSTAT5 Assay in NK cells [2]: 53.9 nM
Average EC50, pSTAT5 Assay (T cells) [1]: 144 nM

B12: CMP-305, MMP2 cleaved molecule (ligand)
chain: APTSSSTKKTQLQLEHLLLDLQKILNGINNYKNPKLTR[Nle]L[hSer][Yn3]KF[Ygp][Nle]PKKATELKHLQCLEEELKPLEEVL[hSer]LAQSKNFHLRPRDLISNINVIVLELKGSETTF[hSer]CEYADETATIVEFLNRWITFSQSIISTLT
modifications: also: m29 after MMP2 cleavage: Glu15-Lys23 cleavable peptide bridge cut, remnants on Glu15 and Lys23 not given here
Average EC50, pSTAT5 Assay (T cells) [1]: 3.26 nM

B13: CMP-304 (ligand)
chain: PLGLAGAPTSSSTKKTQLQLEHLLLDLQEILNGINNYKNPKLTR[Nle]L[hSer][Yn3(4)]KF[Ygp(4)][Nle]PKKATELKHLQCLEEELKPLEEVL[hSer]LAQSKNFHLRPRDLISNINVIVLELKGSETTF[hSer]CEYADETATIVEFLNRWITFSQSIISTLT
modifications: bridge N-29; not fully specified (N-terminus, bridges); ends not checked
Average EC50, pSTAT5 Assay (T cells) [1]: 110 nM

From patent publication US20240376170A1 (BRIGHT PEAK THERAPEUTICS, published 2024)
